Results from patent publication US20260273054A1 (published 2026).

Assays:
[1] = molecular target: T1, EGFR wild type (L858) peptide on HLA-A*11:01 (human); assay: activation reporter or marker
T1 peptide: KITDFGLAKL

[2] = molecular target: T2, EGFR wild type (L858) peptide on HLA-A*11:01 (human); assay: activation reporter or marker
T2 peptide: VKITDFGLAK

[3] = molecular target: T3, EGFR L858R peptide on HLA-A*11:01 (human); assay: killing
T3 peptide: KITDFGRAK

[4] = molecular target: T4, EGFR wild type (L858) peptide on HLA-A*11:01 (human); assay: killing
T4 peptide: KITDFGLAK

[5] = molecular target: T5, EGFR L858R peptide on HLA-A*11:01 (human); assay: activation reporter or marker
T5 peptide: KITDFGRAKL

[6] = molecular target: T3, EGFR L858R peptide on HLA-A*11:01; assay: activation reporter or marker
[7] = molecular target: T4, EGFR wild type (L858) peptide on …; assay: activation reporter or marker

B1: 0013-TCR1 (TCR, V domains shown)
Valpha: QKEVEQNSGPLSVPEGAIASLNCTYSDRGSQSFFWYRQYSGKSPELIMSIYSNGDKEDGRFTAQLNKASQYVSLLIRDSQPSDSATYLCAVYNNNDMRFGAGTRLTVKP
Vbeta: GVSQTPSNKVTEKGKYVELRCDPISGHTALYWYRQSLGQGPEFLIYFQGTGAADDSGLPNDRFFAVRPEGSVSTLKIQRTERGDSAVYLCASSFLAGHLYTGELFFGEGSRLTVL
- binding result [1]: no recognition
- binding result [2]: no recognition
- binding result [3]: recognises
- binding result [4]: no recognition

B2: 0013-TCR319 (TCR, V domains shown)
Valpha: QSVTQPDIHITVSEGASLELRCNYSYGATPYLFWYVQSPGQGLQLLLKYFSGDTLVQGIKGFEAEFKRSQSSFNLRKPSVHWSDAAEYFCAVGGGGADGLTFGKGTHLIIQP
Vbeta: DVKVTQSSRYLVKRTGEKVFLECVQDMDHENMFWYRQDPGLGLRLIYFSYDVKMKEKGDIPEGYSVSREKKERFSLILESASTNQTSMYLCATLWYRQGADGYTFGSGTRLTVV
- binding result [1]: no recognition
- binding result [5]: no recognition
- binding result [2]: no recognition
- binding result [3]: recognises
- binding result [4]: no recognition

B3: 0013-TCR102 (TCR, V domains shown)
Valpha: VGLHLPTLSVQEGDNSIINCAYSNSASDYFIWYKQESGKGPQFIIDIRSNMDKRQGQRVTVLLNKTVKHLSLQIAATQPGDSAVYFCAETPDKLIFGTGTRLQVFP
Vbeta: DTGVSQDPRHKITKRGQNVTFRCDPISEHNRLYWYRQTLGQGPEFLTYFQNEAQLEKSRLLSDRFSAERPKGSFSTLEIQRTEQGDSAMYLCASSGGGDSPLHFGNGTRLTVT
- binding result [6]: recognises
- binding result [1]: no recognition
- binding result [5]: no recognition
- binding result [2]: no recognition
- binding result [7]: no recognition
